The labels stand for the following.
T1: human CD73 (SEQ ID NO: 70) (Homo sapiens, UniProt P21589)
T1 construct: purchased BPS Bioscience
T1 sequence (P21589 27-549): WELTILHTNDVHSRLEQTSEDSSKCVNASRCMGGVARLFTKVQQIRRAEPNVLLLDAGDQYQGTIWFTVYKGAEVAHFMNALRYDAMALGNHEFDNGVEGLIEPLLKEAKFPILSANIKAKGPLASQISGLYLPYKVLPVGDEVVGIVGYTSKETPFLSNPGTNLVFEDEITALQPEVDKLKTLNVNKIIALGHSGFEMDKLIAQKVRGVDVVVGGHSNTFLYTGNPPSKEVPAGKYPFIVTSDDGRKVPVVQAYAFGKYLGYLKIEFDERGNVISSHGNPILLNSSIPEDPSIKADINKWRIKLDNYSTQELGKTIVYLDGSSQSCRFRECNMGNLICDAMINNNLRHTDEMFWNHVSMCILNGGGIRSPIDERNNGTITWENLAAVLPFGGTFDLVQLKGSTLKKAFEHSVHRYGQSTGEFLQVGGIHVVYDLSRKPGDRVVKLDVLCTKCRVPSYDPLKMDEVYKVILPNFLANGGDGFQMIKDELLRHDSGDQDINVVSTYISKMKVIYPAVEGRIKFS

B1: CL25_hu_8-4: humanized CL25 antibody, VH and VL in FIG. 1B (antibody, V domains shown)
VH: QVQLVQSGAEVKKPGASVKVSCKASGYTFTSYGLSWVRQATGQGLEWMGEIYPGSGNTYYNEKFKGRVTMTRNTSISTAYMELSSLRSEDTAVYYCARYDYLGSSYGFDYWGAGTTVTVSS
VL: DIQMTQSPSSLSASVGDRVTITCKASQDVSTAVAWYQQKPGKAPKLLLYSASYRYSGVPSRFSGSGSGTDYTLTISSLQPEDFATYYCQQHYNTPYTFGGGTKLEIK
B2: CL25_hu_8-6: humanized CL25 antibody, VH and VL in FIG. 1C (antibody, V domains shown)
VH: B1 VH
VL: B1 VL with D1A, Q3R, L11F, V15T, L48I, Y71F, S77C, P80S
B3: CL25_hu_8-5: humanized CL25 antibody, VH and VL in FIG. 1B (antibody, V domains shown)
VH: B1 VH
VL: DIVMTQSPDSLAVSLGERATINCKASQDVSTAVAWYQQKPGQPPKLLIYSASYRYSGVPDRFSGSGSGTDFTLTISSLQAEDVAVYYCQQHYNTPYTFGGGTKLEIK
B4: CL25_hu_9-5: humanized CL25 antibody, VH and VL in FIG. 1C (antibody, V domains shown)
VH: B1 VH with A16S, T41P, M70I, R72A, N73D, T74E, I76T
VL: B3 VL
B5: CL25_hu_9-4: humanized CL25 antibody, VH and VL in FIG. 1C (antibody, V domains shown)
VH: B1 VH with A16S, T41P, M70I, R72A, N73D, T74E, I76T
VL: B1 VL
B6: CL25_hu_11-6: humanized CL25 antibody, VH and VL in FIG. 1B (antibody, V domains shown)
VH: B1 VH with R72A
VL: B1 VL with D1A, Q3R, L11F, V15T, L48I, Y71F, S77C, P80S
B7: CL25_hu_10-4: humanized CL25 antibody, VH and VL in FIG. 1A (antibody, V domains shown)
VH: EVQLVQSGAEVKKPGESLKISCKGSGYTFTSYGLSWVRQMPGKGLEWMGEIYPGSGNTYYNEKFKGQVTISADKSISTAYLQWSSLKASDTAMYYCARYDYLGSSYGFDYWGAGTTVTVSS
VL: B1 VL
B8: CL25_hu_10-6: humanized CL25 antibody, VH and VL in FIG. 1A (antibody, V domains shown)
VH: B7 VH
VL: B1 VL with D1A, Q3R, L11F, V15T, L48I, Y71F, S77C, P80S
B9: CL25_hu_11-4: humanized CL25 antibody, VH and VL in FIG. 1A (antibody, V domains shown)
VH: B1 VH with R72A
VL: B1 VL
B10: CL25_hu_9-6: humanized CL25 antibody, VH and VL in FIG. 1C (antibody, V domains shown)
VH: B1 VH with A16S, T41P, M70I, R72A, N73D, T74E, I76T
VL: B1 VL with D1A, Q3R, L11F, V15T, L48I, Y71F, S77C, P80S
B11: CL25_hu_11-5: humanized CL25 antibody, VH and VL in FIG. 1B (antibody, V domains shown)
VH: B1 VH with R72A
VL: B3 VL

Numbering of substitutions follows the chain as printed.

For this assay, the target named is T1, human CD73 (SEQ ID NO: 70). The assay can be described thus: SPR (Biacore 8K) binding affinity and kinetics to human CD73. Particulars: human CD73, open conformation, 25° C. The method, then: The SPR running buffer (10 mM HEPES, 150 mM NaCl, 3 mM EDTA and 0.05% v/v Surfactant P20, pH 7.4) was prepared from 10×HBS-EP Buffer (GE Healthcare). Anti-human Fc antibodies (GE Healthcare) were immobilized via amine coupling on all sixteen flow cells of an S series sensor chip CM5 (GE Healthcare). The immobilization levels were ˜9000 RU for all flow cells. The desired capturing level of anti-CD73 antibody was achieved by flowing appropriate concentration of anti-CD73 antibody through the active flow cell of each channel. The non-cleavable ADP analogue APCP (adenosine-5′-(α,β-methylene) diphosphate) with the presence of Zn^2+ can be used to shift the CD73 conformational equilibrium from open towards closed. Therefore, recombinant CD73 was incubated with SPR running buffer in the presence of 100 μM APCP and 10 μM ZnCl2 (closed SPR running buffer) to study the binding of anti-CD73 antibody to the CD73 in the closed conformation. To achieve this, the ABA injection feature in Biacore 8K was used. For open conformation, the ABA injection sequence started with 60 seconds injection of running buffer. Then, CD73 3-fold serial dilution concentration series prepared from CD73 stock (BPS Bioscience) and running buffer were injected for 180 seconds immediately followed by running buffer for 240 seconds. For closed conformation, the normal SPR running buffer was replaced by closed SPR running buffer. Surface was regenerated with 30 seconds injection of 3 M MgCl2. […] Binding affinities and kinetic association and dissociation rate constants to human, cynomolgus, and mouse CD73 in either open or closed conformations are shown in Table 8 below. The results in Table 8 ensure cynomolgus pharmacokinetic data will reflect human pharmacokinetic data.
Binding affinities and kinetic association and dissociation rate constants to human, cynomolgus, and mouse CD73 in either open or closed conformations are shown in Table 9 below.
(In general: Surface plasmon resonance follows binding to a sensor surface in real time, without labels.)
Molecule B1 displayed a ka of 770000 M⁻¹ s⁻¹ and a kd of 0.00176 s⁻¹.
The corresponding values for B2 are 715000 M⁻¹ s⁻¹ and 0.00111 s⁻¹.
The matching figures for B3: >1e+06 M⁻¹ s⁻¹ and 0.000949 s⁻¹.
As for B4, the ka was 565000 M⁻¹ s⁻¹ and the kd was 0.00114 s⁻¹.
The corresponding values for B5 are 382000 M⁻¹ s⁻¹ and 0.00264 s⁻¹.
B6 showed a ka of 550000 M⁻¹ s⁻¹ and a kd of 0.00101 s⁻¹.
The matching figures for B7: 887000 M⁻¹ s⁻¹ and 0.00107 s⁻¹.
Take B8: the ka came out at 524000 M⁻¹ s⁻¹ and the kd amounted to 0.00092 s⁻¹.
The corresponding values for B9 are 624000 M⁻¹ s⁻¹ and 0.00155 s⁻¹.
Molecule B10 registered a ka of 424000 M⁻¹ s⁻¹ and a kd of 0.000953 s⁻¹.
In turn, B11 gave a ka of 799000 M⁻¹ s⁻¹ and a kd of 0.00117 s⁻¹.
